Usually Kd stands for the constant that tells how readily two partners part at equilibrium.

We go through 16 molecules from patent US20220089784A1 (University of California, published 2022).

Common to all, as to test: yeast scFv FACS
The target of assay [1] is BoNT/A light chain (recombinant) (Clostridium botulinum, UniProt P0DPI0 1-448).
For assay [2], the target named is BoNT/A2 holotoxin (FRI-H1A2) (Clostridium botulinum, UniProt Q45894 2-1296).
For assay [3], the target named is BoNT/A1 holotoxin (Hall hyper) (Clostridium botulinum, UniProt P0DPI0 2-1296).
Assay [4] addresses T1, BoNT/B light chain (recombinant) (Clostridium botulinum, UniProt P10844 1-441).
T1 sequence: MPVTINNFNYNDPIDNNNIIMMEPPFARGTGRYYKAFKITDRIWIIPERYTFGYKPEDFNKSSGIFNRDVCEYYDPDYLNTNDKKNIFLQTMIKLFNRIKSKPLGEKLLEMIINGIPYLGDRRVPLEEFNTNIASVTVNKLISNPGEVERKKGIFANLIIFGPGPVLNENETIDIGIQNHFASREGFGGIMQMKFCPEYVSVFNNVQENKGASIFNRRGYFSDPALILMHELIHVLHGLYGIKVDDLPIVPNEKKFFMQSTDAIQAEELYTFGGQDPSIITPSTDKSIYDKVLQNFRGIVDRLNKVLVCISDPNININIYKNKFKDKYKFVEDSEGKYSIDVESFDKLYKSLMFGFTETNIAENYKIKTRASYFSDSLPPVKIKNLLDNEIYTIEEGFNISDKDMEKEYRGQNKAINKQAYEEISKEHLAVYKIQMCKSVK

Chain of BoNT/A2 holotoxin (FRI-H1A2) (Q45894 2-1296): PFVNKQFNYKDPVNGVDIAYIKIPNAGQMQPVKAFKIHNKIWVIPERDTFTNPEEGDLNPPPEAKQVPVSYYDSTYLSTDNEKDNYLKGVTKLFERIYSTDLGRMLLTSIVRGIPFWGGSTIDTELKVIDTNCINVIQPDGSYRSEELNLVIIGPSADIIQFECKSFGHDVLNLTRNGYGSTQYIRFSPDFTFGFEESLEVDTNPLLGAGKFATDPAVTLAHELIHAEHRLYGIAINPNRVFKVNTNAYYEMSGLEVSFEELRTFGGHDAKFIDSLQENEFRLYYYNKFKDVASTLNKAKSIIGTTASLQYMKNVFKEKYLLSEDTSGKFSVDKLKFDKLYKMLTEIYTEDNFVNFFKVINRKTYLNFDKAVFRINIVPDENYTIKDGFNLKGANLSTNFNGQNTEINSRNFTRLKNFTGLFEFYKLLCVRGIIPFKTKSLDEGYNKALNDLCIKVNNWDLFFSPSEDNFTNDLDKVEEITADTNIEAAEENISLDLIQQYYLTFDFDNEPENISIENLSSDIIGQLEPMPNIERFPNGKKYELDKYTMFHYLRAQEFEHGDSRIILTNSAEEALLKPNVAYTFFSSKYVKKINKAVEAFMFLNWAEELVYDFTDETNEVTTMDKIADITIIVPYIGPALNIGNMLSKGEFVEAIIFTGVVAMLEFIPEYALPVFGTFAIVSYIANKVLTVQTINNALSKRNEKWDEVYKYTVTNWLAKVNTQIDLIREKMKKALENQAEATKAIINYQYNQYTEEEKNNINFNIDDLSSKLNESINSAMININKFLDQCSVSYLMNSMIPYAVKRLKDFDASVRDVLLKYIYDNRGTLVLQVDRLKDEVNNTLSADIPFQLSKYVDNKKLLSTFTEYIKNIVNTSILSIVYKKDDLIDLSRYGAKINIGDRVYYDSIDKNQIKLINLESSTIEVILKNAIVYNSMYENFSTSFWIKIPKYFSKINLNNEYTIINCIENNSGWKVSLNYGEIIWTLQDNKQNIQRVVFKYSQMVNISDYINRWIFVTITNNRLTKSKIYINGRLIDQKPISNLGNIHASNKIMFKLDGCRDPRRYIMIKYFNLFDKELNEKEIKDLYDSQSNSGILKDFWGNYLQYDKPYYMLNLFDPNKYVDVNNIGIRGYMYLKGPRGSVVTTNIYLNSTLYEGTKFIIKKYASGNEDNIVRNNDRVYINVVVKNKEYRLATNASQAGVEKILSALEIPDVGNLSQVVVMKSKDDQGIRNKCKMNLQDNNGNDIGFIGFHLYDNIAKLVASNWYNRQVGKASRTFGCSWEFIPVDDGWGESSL

B1: 10F9 scFv (scFv)
scFv: EVQLQQSGAELVKPGASVKLSCKASGYTFTSYWMHWIKQRPGQGLEWIGVIDPSDSYTNYNQKFKGKATLTVDTSSSTAYMQLSSLTSEDSAVYYCATGGNGFFDYWGQGTTLTVSSVDLKSGGSTSGSGKPGSGEGSSGSARDIVLTQSPASLAVSLGQRATISCRASESVDYDGDSYMNWYQQKPGQPPKLLIYAASNLESGIPARFSGSGSGTDFTLNIHPVEEEDAATYYCLQSNEAPWTFGGGTKLELK
notes: mouse
With B1, the Kd in assay [1] was 0.09 nM; in assay [2], > 500 nM; in assay [3], > 500 nM.

B2: 10H10 scFv (scFv)
scFv: QVQLQQSGAELVRPGTSVKLSCKASGYTFTSYWMHWVKQRPGQGLEWIGVIDPSDSYTNYNQKFKGKATLTVDTSSSTAYMQLSSLTSEDSAVYYCARGGGRSSLDYWGQGTSVTVSSVDLKSGGSTSGSGKPGSGEGSSGSARDVVMTQTPASLAVSLGQRATISCKASQSVDYDGDSYMNWYQQKPGQPPKLLIYAASSLESGIPARFSGSGSGTDFTLNIHPVEEEDAATYYCQQSNEDPYTFGGGTKLEIK
notes: mouse
For the molecule B2, in assay [1], the dissociation constant (Kd) was 11.1 nM. Also, the binding result in assay [2] and in assay [3] was “no binding” in each case.

B3: 1C7 scFv (scFv)
scFv: EVQLQQSGAELVRPGASVKMSCKASGYTFTSYNMHWVKQTPRQGLEWIGAIYPGNGDTSYNQKFKGKATLTVDKSSSTAYMQLSSLTSEDSAVYFCARTAGFYFDYWGQGTTLTVSSVDLKSGGSTSGSGKPGSGEGSSGSARDIVMTQSPAIMSASPGEKVTMTCSASSSVSYMYWYQQKPGSSPRLLIYYTSNLAPGVPARFSGSGSGNSYSLTISSMEGEDAATYYCQQFTSSPYTFGGGTKLEIK
notes: mouse
As for B3, the Kd in assay [1] worked out at 35.3 nM. In addition, the binding result in assay [2] and in assay [3] was “no binding” in each case.

B4: 10B12 scFv (scFv)
scFv: EVQLQQSGAELVRPGTSVKLSCKSSGYTFTSDWMHWVIQRPGQGLEWIGVIDPSDSYTNYNQKFKGKATLTVDTSSSTAYMHLSSLTSEDSAVYYCARREGHYYGKAMDYWGQGTSVTVSSVDLKSGGSTSGSGKPGSGEGSSGSARDIVMSQSPASLAVSLGQRATISCRASESVDYDGDSYMNWYQQKPGQPPKLLIYAASNLESGIPARFSGSGSGTDFTLNIHPVEEEDAATYYCLQSNEAPWTFGGGTKLEIK
notes: mouse
Turning to B4, the Kd in assay [1] worked out at 0.53 nM; in assay [2], 140 nM. In assay [3], the binding result is recorded as “no binding”.

B5: 31G2 scFv (scFv)
scFv: QVQLQQSGAELVKPGASVKLSCTASGFNIKDTYMHWVKQRPEQGLEWIGRIDPEDGETKYAPKFQGKATITADTSSNTAYLQLSSLTSEDTAVYYCARWLLYYYAMDYWGQGTSVTVSAVDLKSGGSTSGSGKPGSGEGSSGSARQIVLTQSPALMAASPGEKVTITCSVSSSISSSNLHWYQQKSETSPKPWIYGTSNLASGVPARFSGSGSGTSYSLTISRVEAEDAATYYCHQRSSYPLTFGAGTKLEIK
notes: mouse
As for B5, the Kd in assay [4] amounted to 3.34 nM.

B6: 7C8 scFv (scFv)
scFv: LQLKQSGPGLVKPSQSLSLTCSVTGYSITSGYYWYWIRQFPGNKLEWMGYISYDGSNNYNPSLKNRISITRDTSKNQFFLKLNSVTTEDTATYYCARNLGLWYFDVWGTGTPLTVSSVDLKSGGSTSGSGKPGSGEGSSGSAREIVLTQSPAILSASPGEKVTMTCRASSSVRYMHWYQQKPGSSPKPWIYATSNLASGVPARFSGSGSGTSYSLTISRVEAEDAATYYCQQWSGNAPTFGGGTKLEIK
notes: mouse
For the molecule B6, the Kd was 0.94 nM in assay [1], 0.45 nM in assay [2] and 0.73 nM in assay [3].

B7: 1D2 scFv (scFv)
scFv: QVQLKESGAELMKPGASVKLSCKATGYTFTGYWIEWVKQRPGHGLEWIGEILPGSGSTNYNEKFKGKATFTADTSSNTAYMQLSSLTTEDSAIYYCASIYYGHDYWGQGTTLTVSSVDLKSGGSTSGSGKPGSGEGSSGSARDIVMTQSPKFMSTSVGDRVSVTCKASQNVGTNVAWYQQKPGQSPKALIYSASYRYSGVPDRFTGSGSGTDFTLTISNVQSEDLAEYFCQQYNSYPYTFGGGTKLEIK
notes: mouse
For B7, the Kd in assay [1] was found to be 6.4 nM. Moreover, the binding result in assay [2] and in assay [3] was “no binding” in each case.

B8: 1C10 scFv (scFv)
scFv: QIQLLQPGTELVRPGTSVKLSCKASGYTFTNYWMHWVKQRPGQGLEWIGVIDPSDSYTNYNQKFKGKATLTVDTSSSTAYMQLSSLTFEDSAVYYCARYSGPYAMDYWGQGTTLTVSAVDLKSGGSTSGSGKPGSGEGSSGSAREIVLTQSPASLAVSLGQRATISCRACESVDYDGDSYMNWYQQKPGQPPKLLIYAASNLESGIPARFSGSGSGTDFTLNIHPVEEEDAATYYCLQSNEAPWTFGGGTKLEIK
notes: mouse
B8: the Kd in assay [1] worked out at 4.85 nM. For the same molecule, the binding result in assay [2] and in assay [3] was “no binding” throughout.

B9: 10B4 scFv (scFv)
scFv: QVQLKESGPGLVKPSQTVSLTCTVTGYSITNGNHWWNWIRQVSGSKLEWIGYISSSGYTDINPSLKSRISITRDTSKNQLFLQLNSVTTEDIATYYCARDDGYYEALDYWGQGTSVTVSSVDLKSGGSTSGSGKPGSGEGSSGSARDIVMSQSPAIMSASPGEKVTLTCSASSSVSSNYLYWYQQKPGSSPKLWIYSTSNLASGVPARFSGSGSGTSYSLTISRVEAEDAATYYCQQWSSNPPTFGGGTKLEIK
notes: mouse
In the case of B9, the Kd is 1.53 nM in assay [1], 252 nM in assay [2] and > 500 nM in assay [3].

B10: 11D8 scFv (scFv)
scFv: EVQLQQSGAELVRPGTSVKLSCKASGYTFTSYWMHWVKQRPGQGLEWIGVIDPSDSYTNYNQKFKGKATLTVDTSSSTAYMQLSSLASEDSAVYYCARYPGNRAMDYWGQGTSVTVSSVDLKSGGSTSGSGKPGSGEGSSGSARDIVLTQSPASLAVSLGQRATISCRASESVDYDGDSYMNWYQQKPGQPPKLLIYAASNLESGIPARFSGSGSGTDFTLNIHPVEEEDAATYYCLQSNEAPWTFGGGTKLEIK
notes: mouse
B10: in assay [1], the Kd was 0.22 nM. The binding result in assay [2] and in assay [3] was “no binding” each time.

B11: 18F2 scFv (scFv)
scFv: EVQLQQSGPELMKPGASVKISCKASGYAFSRSWMNWVKQRPGKGLEWIGRIYPGDGDTNYNGKFKDKASLTADTSSSTAYMQLSSLTSEDSAVYFCTKSEGYYHNLGAYWGQGTTVTVSSVDLKSGGSTSGSGKPGSGEGSSGSAREIVLTQSPAIMSASPGQKVTITCSASSSVSYMHWYQQKSGTSPKRWIYDTSKLASGVPARFSGSGSGTSYSLIISSMEAEDAATYYCQQWRSNPPTFGGGTRLEIK
notes: mouse
On to B11, for which, in assay [4], the Kd amounted to 1.05 nM.

B12: 34E8B12 scFv (scFv)
scFv: QVQLVESGPDLVKPSQSLSLTCTVTGYSITSGYSWHWIRQFPGNKLEWMGYIHYSGSTNYNPSLKSRISITRDTSKNQFFLQLNSVTTEDTATYYCAVYYDYDGDYFDYWGQGTTLTVSSVDLKSGGSTSGSGKPGSGEGSSGSARDVVMTQSPAIMSASPGEKVTMTCSASSSVSYMYWFQQKPGSSPKPWIYRTSNLAPGVPARFSGSGSGTSYSLTISSMEAEDAATYYCQQWSSNPPWTFGGGTKLEIK
notes: mouse
Consider B12, for which the Kd in assay [4] worked out at 2.44 nM.

B13: 1D8 scFv (scFv)
scFv: EVQLQESGAELVRPGTSVKLSCKASGYTFTSYWMHWVKQRPGQGLEWIGVIDPSDSYTNYNQKFKGKATLTVDTSSSTAYMQLSSLTSEDSAVYYCARGSSGYVNYWGQGTTLTVSSVDLKSGGSTSGSGKPGSGEGSSGSARDIVMSQSPASLAVSLGQRATISCRASESVDYDGDSYMNWYQQKPGQPPKLLIYAASNLESGIPARFSGSGSGTDFTLNIHPVEEEDAATYYCLQSNEAPWTFGGGTKLEIK
notes: mouse
Turning to B13, the Kd in assay [1] was 3.35 nM. For the same molecule, the binding result in assay [2] and in assay [3] was “no binding” throughout.

B14: 31H3 scFv (scFv)
scFv: EVQLQQSGAELVRPGASVKMSCKASGYPFTIYWITWVKQRPGQGLEWIGEIYPGSGFTKYNEKFRSKATLTVDTSSSTAYMQLSSLTSEDSAVYYCALYGSNFDYWGQGTTLTVSSVDLKSGGSTSGSGKPGSGEGSSGSARDIVMTQSPAIMSASPGEKVTMPCSASSSVSYMHWYQQKPGTSPKRWIYDTSKLASGVPARFSGSGSGTSYSLTISRVEAEDAATYYCQQWSSHPPTFGAGTRLEIK
notes: mouse
B14: in assay [4], the Kd was 1.28 nM.

B15: 10H11 scFv (scFv)
scFv: QIQLLQSGAELVKPGASVKLSCTASGFNIKDYYMHWVKQRPEQGLEWIGRIDPEDGDTEYAPKFQGKATMTADTSSNTAYLQLSSLTSEDSAVYFCARLNYDYPYWYFDVWGTGTTLTVSSVDLKSGGSTSGSGKPGSGEGSSGSARQIVLTQSPAIMSASPGEKVTMTCSASSSVSYMYWYQQKPGSSPRLLIYDTSNLASGVPVRFSGSGSGTSYSLTISRMEAEDAATYYCQQWSSYPLTFGAGTRLELK
notes: mouse
Take B15: the Kd in assay [1] is 0.92 nM. For the same molecule, the binding result in assay [2] and in assay [3] was “no binding” in each case.

B16: 10C9 scFv (scFv)
scFv: QVQLQQSGAELVRPGTSVKLSCKASGYTFTSHWMHWVKQRPGQGLEWIGVIDPSDSYTNYNQKFKGKATLTVDTSSSTAYMQLSSLTSEDSAVYYCAIRRNYGMDYWGQGTSVTVSSVDLKSGGSTSGSGKPGSGEGSSGSARDIVMTQSPTSLAVSLGQRATISCKASQSVDYDGDSFMNWYQQKPGQPPKLLIYGASNLESGIPARFSGSGSRTDFTLTINPVEADDVATYYCQQSNEDPLTFGAGTKLELK
notes: mouse
In the case of B16, the Kd is 0.36 nM in assay [1], 112 nM in assay [2] and > 500 nM in assay [3].
